Source: the RNAGym collection of RNA variant scans (doi:10.1073/pnas.2313332121)
Fewer inactive variants are shown than the library holds.

B1: TPR 5TU (parent)
chain: GGAUCUUCUCGAUCUAACAAAAAAGACAAAUCUGCCACAAAGCUUGAGAGCAUCUUCGGAUGCAGAGGCGGCAGCCUUCGGUGGCGCGAUAGCGCCAACGUUCUCAACUAUGACACGCAAAACGCGUGCUCCGUUGAAUGGAGUUUAUCAUG

Variants of: B1
Assay: polymerase ribozyme fitness, log enrichment relative to wild type (log ratio); higher = more active; in vitro selection for triplet polymerase activity
Outline: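 Fitness measures genotype enrichment against wild-type enrichment on a logarithmic scale, with inverse-variance-weighted averaging of replicates. The logarithm is base 2, and genotypes were kept only with ≥10 input reads and ≥1 read per output in Illumina sequencing. The sequenced libraries came from one triplicate in vitro selection round, including frozen incubation at −7 °C, of PCR-built, transcribed mutant libraries of each subunit of a heterodimeric triplet polymerase ribozyme.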

Variant	polymerase ribozyme fitness (log ratio)
C35U C93U	-1.74
C36A C75A C79U A115U A120C C125U	≤ -4.2
A37U G48C	-2.02
C36A A138U U145A A147C	-3.85
C36U U144C	-1.23
C38A C57U A113U	-1.65
C36G A39U A40U A60G U104A G136U G141A	≤ -4.2
C36U U55A C93U U144G	-1.07
A37C C87A	≤ -4.2
C38U C57U C93A A142U	-3.5
C36U A60G C75G G92C	≤ -4.2
C35G G80A A91U C105U	≤ -4.2
A37C U45G A47C G59A C79G G81C U82C C95U	-4.18
C38A U82G A91G A106C A138G	≤ -4.2
A37G C57U G71U G92C C96U A97C A150C U151A	≤ -4.2
A37C G62C G86A C96G C99A	≤ -4.2
A37G U55A C85U C96U A107C C125A U144A A147U	≤ -4.2
C38A G84A	-1.23
C35U G59C C76G G124U	≤ -4.2
C38A U55A C76A	-1.15
A37G G59C A147C	-2.8
C36U U56A C85G C105A C116A	≤ -4.2
C36U G59A G94U A107C G133C G140U U144G	≤ -4.2
C35G U45C G67U G83C	≤ -4.2

Variant	polymerase ribozyme fitness (log ratio)
C38U A91U	≤ -4.2
C35U A52C U90A C95U A122C	≤ -4.2
A37C A73G G86A	-2.34
A37C A41C U56A G67C C85A G126A C131A G141A	≤ -4.2
C35U A106C U144A	-2.33
A37C C123U	0.207
C38U A89U C114U	-2.12
C36U U61A C95U U102C	-4
C35G G126U	-4.16
C35U G81C U109G C116U	-3.18
A37C A40G G50U G86A A97U	≤ -4.2
A37C A60U C63U G86U A98G	-3.99
A37U C75A G84A C114U	≤ -4.2
A37C A98U	0.384
C36A U61G A64C C118A A147C	≤ -4.2
C38G G58C G92U C105G U146C	-2.53
C38G C54U C57U U146C	-1.16
A37G G50U C72U C105G U139C	≤ -4.2
C35U A37G U61A A64U C149G	≤ -4.2
C35U G83A C116A	-1.03
C35U C93G G126A C131U U139A	-4.11
A37U C75G C87G C93U U101C	≤ -4.2
C35U G65A G80U C95G G141C	-3.95
C36U U55A G58A A91U C93U U127A U148C	≤ -4.2

Variant	polymerase ribozyme fitness (log ratio)
C36U C95G	-2.94
A37U A64G A73G G133U	-4.19
C35U A52C G58U G59C G70U C85A G152U	≤ -4.2
A37U A39U A49C G50C G84A A98C G143U	≤ -4.2
A37G C85G	-3.97
C36U A52C U55G G58C C125A C131G	≤ -4.2
A37U C38A G58C C85G C87G	≤ -4.2
C35U A41G G94A A98U G152U	-3.4
C36G A66U G68C	≤ -4.2
C36A C85A C118U	-3.82
C38A C95G	-1.41
C38A C95U	-0.419
A37G U55A A73G U111G	≤ -4.2
C35U A52G U56A U109G A119U	-3.89
C38A A41C U61A G94A C131A G141A U144G U151A	≤ -4.2
C35U U53A G92U C103U C114G A115U A122U	≤ -4.2
C35U A41G G68A C96G A98C C108G G126U U135C	≤ -4.2
A37C C95G U134G	-3.26
A37G U56G	-1.45
A37C C99U C118U G143A U144A	-3.39
A37U A98U	-0.971
C38U A73G G86A A91U A97G A115C	≤ -4.2
C36A A64C G86C G133U	≤ -4.2
C38A C95G G124C	-1.34

Variant	polymerase ribozyme fitness (log ratio)
C35U C85A C103U A119U	-2.38
C36U C69A A91U G94U C118U A121U	≤ -4.2
C36A A49U C63U C79G C87U A106G G133A U144C	≤ -4.2
C35U G50A U82C G141U	-4.1
C35G U55A C85A A113C	-3.96
C35U C116U	0.17
A37C U61A	-1.77
A37C A49C U77A C87G A120G C131G	≤ -4.2
C35U A147C	-0.582
C36A G58A G67U G81C C103G A113U U134G G141U	≤ -4.2
A37U C85G G86A G92C A115G	-3.98
C36G C69A U78C C85U U102C U127A	≤ -4.2
A37G U56A G124C U134A U144A	≤ -4.2
C36U G141C	-2.17
A37U G59A	-0.836
C36A U55A C57G C76A	-4.03
C38A G58C A98G A120C A121U	-0.687
C36U C85A C93A C114U	≤ -4.2
C35U G59A C87U U144C	-1.17
C36G	-3.16
C36A	-2.97
C36U	-0.919
C38G G143C C149U	≤ -4.2
C36A G48A G50A C69G G71A	≤ -4.2

Variant	polymerase ribozyme fitness (log ratio)
C36A C57A C99G A106U A115C	≤ -4.2
C38A C85U C87U C116A	-0.329
C36A G94A A121C	-4.03
C36A A47U A52U U53A G59C A106G	≤ -4.2
C38U C57U A106U U146G	-2.36
C35U C87U C96U C114U	-3.78
C36A G50A A64U A66C A98U U104A U109G U148G	≤ -4.2
C35U U45A G59C C93G U144A	≤ -4.2
C38A C85U	-0.235
C38A C131G U146C U151A	≤ -4.2
C36U C93A A110C U139A	≤ -4.2
C36U U146G	-3.6
C36U G50C U53A G59C U78A	≤ -4.2
A37C G81C C85G C116G U144G	-4.04
C38U A39C G92U	-2.59
C38G G50A G58C A60G U145G	≤ -4.2
C35U A64G G81U G92A C93A A115U U134A U151G	≤ -4.2
A37U G65C A110U G136C	≤ -4.2
C36G C43U C85U A115C C116A	-4.15
A37G A47G G92C	-3.05
C36U A39C U82C G84U A119C A120U G133C A142U	≤ -4.2
C38U A41U C51U G84A G143A	-3.06
C36A U55A G92A C96G G126C U144C	≤ -4.2
C35U G50U C93G	-3.56

Variant	polymerase ribozyme fitness (log ratio)
C38U A47G C51G C93U	-3.21
A37U C57U U101G	-0.608
C36U U53A U78A G83A U90C	≤ -4.2
C38U C63A C103A	-1.77
C35U C95U C96A	-1.64
C35U A97U	-2.26
C38U C54A C99U C132U	-2.38
C36U C54G U55C C75U C93U U146A	≤ -4.2
C35U A97U U134A	-3.07
C38A U61A A97G C123U	-1.68
C35U A49C G94C A98G C118U	≤ -4.2
C38A G70C G126C	-3.53
C35U G50A U53A U56A C85A C93A C95U	≤ -4.2
C36A A110U A122U	≤ -4.2
C36A A47U G74U G92C A115G C149G	≤ -4.2
C38G C87U C125U G141A	-3.12
C38A C75G C96G	≤ -4.2
C35U C93G A119G	-3.76
C35U C93A C132U A147C	-4.05
C36G C54G A97G A98U C99U U104A C105G G117A G133C A150U	≤ -4.2
A37U A66U C76A U102A G141C	≤ -4.2
C36A A37C C43A U61A C85G	≤ -4.2
A37U C57G U61A G71U A91G U139G	≤ -4.2
C35U C76U C96A C125G A142G	-2.86

Variant	polymerase ribozyme fitness (log ratio)
C38U A49G G92U C103U G124U	-1.7
C35U G65C C76U C96A	≤ -4.2
C38G C95A G141U	1.02
C38A U45A C57A C87G U90G A107U	≤ -4.2
A37G U56G G58C G59A C93G C99G C108U	≤ -4.2
C36A U55A G124A G141U	≤ -4.2
C35U G59A	0.0486
C38U C43U A73U C79A U90C U148G	≤ -4.2
C38A U53A C95G A97G C116U	-2.22
C36A A91U C93G C118A A137U	≤ -4.2
C35U U53A U135A G143C	-4.16
C38G C54G C79U G117A	≤ -4.2
C35U A60G G83A A150G	-2.56
C38A C93U	-1.67
A37U U53A G68A A98U	≤ -4.2
A37C G84U U127G G128A U134G	≤ -4.2
C36G U45G C54U A89U G94U C125G G126A	≤ -4.2
C35U C54U G65U G83C C95U C103G A106G	≤ -4.2
C36A A89U C116A A120U	-4.18
A37U A49C C95G A97G C108G A138G U146G U151A	≤ -4.2
C38A G92C C93A C125G	≤ -4.2
C36U G48U C96G C103G A121C	-2.74
C38G C69A C85A C96A A97C	-3.84
